Here are results for 20 sequences from the DeepSol protein solubility set.

The series is described as follows: soluble on expression in E. coli; label from the status in PepcDB or PDB records.
As for “MSSNFRHQLLSLSLLVGIAAPWAAFAQAPISSVGSGSVEDRVTQLERISNAHSQLLTQLQQQLSDNQSDIDSLRGQIQENQYQLNQVVERQKQILLQIDSLSSGGAAAQSTSGDQSGAAASTTPTADAGTANAGAPVKSGNANTDYNAAIALVQDKSRQDDAMVAFQNFIKNYPDSTYLPNANYWLGQLNYNKGKKDDAAYYFASVVKNYPKSPKAADAMFKVGVIMQDKGDTAKAKAVYQQVISKYPGTDGAKQAQKRLNAM”, the “soluble on expression in E. coli” value is recorded as “soluble”.

As for “MSSQIRQNYSTEVEAAVNRLVNLYLRASYTYLSLGFYFDRDDVALEGVCHFFRELAEEKREGAERLLKMQNQRGGRALFQDLQKPSQDEWGTTPDAMKAAIVLEKSLNQALLDLHALGSAQADPHLCDFLESHFLDEEVKLIKKMGDHLTNIQRLVGSQAGLGEYLFERLTLKHD”, the “soluble on expression in E. coli” value was “soluble”.

As for “MSSRKGKASAHISYEDENDDLIDEINTFHNKDRKVEKGAIHKRKTFNRPEEVLNVEAEASDSSEDDGSDFDDDDVNDITDNKWGKKRKDFYGTGFVDKDWGGMREEEMEDAQLEEEDALTRQKQIDKSTAAIADLFDDDDEDEEEKEETVEVETVLEFNEENARTKNKKIVKTLEQFEARKRIFDLVVKPLENVIKQIPKCALRSQLVYVAQTYASYLMNTAFLLNLRAKQFSNEKLDDPLVDIHPVVESLKRLEKKITECEDFLHSNSDHLDELKKWAESEPENMEELISKVGDVQLTKKNFGAIMNNNLSTITSSDNTSIHPHFTPMDADEKRKASDKVAKNREYAERRGKKKAKTSKTKNRRKVHAIEKRVKSQIGNVRREMQKYSGETSGIRASTIKSTKLIA”, the “soluble on expression in E. coli” value is given as “not soluble”.

In the case of “MSSSIREEVHRHLGTVALMQPALHQQTHAPAPTEITHTLFRAYTRVPHDVGGEADVPIEYHEKEEEIWELNTFATCECLAWRGVWTAEERRRKQNCDVGQTVYLGMPYYGRWLLTAARILVDKQFVTLTELHNKIVEMRERVASGQGLGEYLPPKAK”, the “soluble on expression in E. coli” value is “soluble”.

Consider “MSSSTSQDFVSRPVIKKVFAKLQKEGDGAVVRRGISRSEQKLLDPFLMLDEFSVSPPAGFPDHPHRGITHQDFKGHKGTIYAGDVQWMTAGRGIIHSEMPEEEVNKEPNYQELSHSDIPKAEQNGVEVKVIAGESMGIQSPVYTRTPTMFLDFTLQPGAQIHQNVPESWNAFAYILESGEGGGVFSSSNSSPIPAHSVVVFGPGNDGVSVWNKSSSKQLRFVLIAGEPIGEPVVQYGPFVMNTQAEIDMTIEDYHYGKNGFEMAKYWRSQ”, for which the “soluble on expression in E. coli” value is given as “not soluble”.

For the sequence “MSTAQAVKIGIAEMEVVIAPNVIRTCGLGSCVGVVIYDAGKAVAGMAHVMLPHSSMARGGVINAAKYADTAVEALVQLVIAAGGRKGMLKAKLAGGAQMFSFSTVGGDMMRIGARNVEEVKKQLERLHIPVVAEDVGGHSGRTIEFNPQTGVLSIRTAAQEIKEI”, the “soluble on expression in E. coli” value is recorded as “not soluble”.

As for “MSTEKWRTGLQIQQLHTPTDNVDRSAMKKISSMFSALQEKFQRAKAGAPTPAAVAPPAGRESHCGLRFFEYLLVVSLRKRSSGVGYEPQVTYQFPKREVMGRLQREQEEKSMKAAHLFCFPEGVHWAPVTEYSSETFSFVLTEVDGSRRNGYCRRLLPAGKGARLPEAYCIISHVACFGLFSKIFDEVEKRRQISTAMIYPFMQSLREAPLPSPGSTVSISSFIPDAGTQIIRLTRPADSWLEHVDFTALFSRLNDEELLLVFTAAVLERRIIFISEELSTLSQVLHAVAALLYPFVWQHTFISIVPSVLIDVCEAPTPYLLGVQKSMMGLITDHSDVMIVDLSTGAPTKFITRIGDEESLLPLKLKEELLSGLSARTHHASTEQLNRLVSEAFLSVFVKTVGHFSEHIKRGGKPRQFQKKSFLKAVENKTYSSFVKLFIQTQMFDLFIQEEETQSNPNGFFHRKVKEHRDRMKQEKAKAGWVRGVVI”, the “soluble on expression in E. coli” value is “soluble”.

For the sequence “MSTFGEHRPYVFLPPADLDRIAAQWSKDSARPDAQGRGIAIFSAITGSYDSINHHEHLIPGADYLLFSDAPKPRYVYQPRQAPWFDCDTVRAARFIKTHPHMLLGGYRIAVWIDGNILIRGDLLPLVQRFEESGLAFGAVPHPLRQSVYAEAVECMKRGKDDEATIRRQMQRYRREEFDCEDLIESNLLMFRLGHPSLAPLLDTWWAQIESGSRRDQLSLNYALHKTGVEWLALTQRPHSVRDHPALALMHHRSQFNPLEHHHHHH”, the “soluble on expression in E. coli” value is listed as “soluble”.

In the case of “MSTINQKLSDNFREAWQKQNLEVNLEEVIEKWELTKYVKDNFICPEVNISTLPSYSFVLKFMFKLKKPYISLDENDFYIIDNPLRKDKVLNLPFVAPSSWKGSLRNSLWQLNYDYENDKIRRIFGNERSPNSEDIVLRMGRLYFFPTFFSKKSLEIINPHNRESRVGTVPILMESVPQDTTGYFTLIYVPFDLIGCEENEIKKQVACDIQLISKGLKSMFTYYGFGAKTSSGYGTSYEDITDGTITLRVKGIEVSLKDIDEVKPPAEGYSKYLNEDGSVKEEFKGSGKYGLLSDKEYYKIKNQLEGSRNEYRDFRQWYGLNGEKWQKHLNSFKYPKPEWPTWNFGNFFQLIEVSKNIATSLELSGAHNECMAGDPLEHHHHHH”, the “soluble on expression in E. coli” value is on record as “not soluble”.

“MSTMKDEIEKVPASQYKGQDFQPLAEKSAIAHAKKYREEYEKLGEQFFKDNFSLNVKATNVVGSGDGAEVYVHCDDHDIVFNASIPFDMESIHEEGSMRSNDNGDTMSMMVGTVLSGFEYRANKEKMDNLEKYLKDKEDKYHYTGFTDEAITKTQNIGYQNNYFYITTSSTKLRDYRKHFEPLIKESDDDFKKHMKQLKSKKDTYINTEITTTLFSTLDEYDEKIIRKNTLSMAKEMRKEPSIPHNFTFHLLFSNNKLKINDPNISNNQINEYRVFDHDGFKNLEHHHHHH”: the “soluble on expression in E. coli” value is “soluble”.

As to “MSTMQTELIIVSEYCQKCHIEPSFIEMLEEGGLINVRTEAGKHYLLVSELPNVERYSRMYYDLSINMEGIDAIHHMLERMDDMRREITSLRKQLLLFREREIEEADW”, the “soluble on expression in E. coli” value was “not soluble”.

Take “MSTPFKMERGVKYRDAAKTSIIPVKNIDPNQDLLKKPEWMKIKLPASSAKIESIKNGMRRHGLHSVCEEASCPNLHECFNHGTATFMILGAICTRRCPFCDVAHGKPLPPDPEEPQKLAETIQDMKLKYVVITSVDRDDLPDRGAGHFSECVKAVRELNPNIKIEILVPDFRGRITQALEKLKDNPPDVFNHNLENVPRLYKEIRPGADYEWSLKLLREFKEIFPNIPTKSGLMVGLGETNEEILQVMQDLRDNGVTMLTLGQYLQPSRHHLPVARYVPPTEFDEFRDKANEMGFEHAACGPFVRSSYHADLQASGGLVKLEHHHHHH”: the “soluble on expression in E. coli” value is “not soluble”.

Turning to “MSTQGEIRVGPSHQAKLPDLQPFPSPDGDTVTQHEELVWMPGVNDCDLLMYLRAARSMAAFAGMCDGGSTEDGCVAASRDDTTLNALNTLHESGYDAGKALQRLVKKPVPKLIEKCWTEDEVKRFVKGLRQYGKNFFRIRKELLPNKETGELITFYYYWKKTPEAALEHHHHHH”, the “soluble on expression in E. coli” value is reported as “soluble”.

Regarding “MSTQNYPATGRLAEPEYGTLLVKNVKIYGEGEPVNVLITDGVITDTHAGDVKADREVDGQGGVLLPGLVDIHVHLREPGREDTETIATGSAAAAKGGFTAVFTMANTMPVMDQPIIAESVWHKGQDIGLCDVHPVGSITKGLEGKEITEFGMMAHSQAKVRMFSDDGKCVDNPLIMRRAVEYARGTDVLLAQHCEDPRLTDGAVAHEGAMAAKLGLGGWPRVAEESIVARDAILARDYGGRMHICHASTQGTVELVKWAKEHEIPLTAEVTPHHLLLTDERLATYDGVNRVNPPLRENSDILALRDALLNGTIDCVATDHAPHGSEDKCCEFEHAKPGMLGLETSLAVVAAVFVETGLADWRFVAKVMSERPAEIVKLPGHGRPIAVGEPANLTIVDPGAKWTASGEKMASKATNTPYEGMEFNARVTTTILRGRLTCVDGEPTQARA”, the “soluble on expression in E. coli” value was “not soluble”.

For the sequence “MSTSSNKSDAIKQTRAFSILLMGVDTGSSERASKWEGNSDSMILVTVNPKTKKTTMTSLERDTLTTLSGPKNNEMNGVEAKLNAAYAAGGAQMAIMTVQDLLNITIDNYVQINMQGLIDLVNAVGGITVTNEFDFPISIAENEPEYQATVAPGTHKINGEQALVYARMRYDDPEGDYGRQKRQREVIQKVLKKILALDSISSYRKILSAVSSNMQTNIEISSRTIPSLLGYRDALRTIKTYQLKGEDATLSDGGSYQIVTSNHLLEIQNRIRTELGLHKVNQLKTNATVYENLYGSTKSQTVNNNYDSSGQAPSYSDSHSSYANYSSGVDTGQSASTDQDSTASSHRPATPSSSSDALAADESSSSGSGSLVPPANINPQTLEHHHHHH”, the “soluble on expression in E. coli” value is listed as “soluble”.

Turning to “MSTTHNSLPASSDKHHDGHGEASLYHDSHGHAWSGNPNYTLTQLIPELRINLGSSLDIGSGEGADAAWLASLGWKAVGLEPSGVAVERSRELSSNATFIQGKVPQDLDRCGGPFDLVTGFYIPIAGEDAWRAIARQVADGGYLIYVHHNLDELRAKGHPLLGRDDLLMPFDAADLAPSGAWEIVVHETRHREIVGGHGHHHHLDDVLVLKRRKK”, the “soluble on expression in E. coli” value is “not soluble”.

As for “MSTVGGIEQLIPDSVSTSFIETVNGSHQFTIQGYSLAKGMSPGKFIQSDIFSVGGYDWAIYFYPDGKNPEDQSSYISLFIALASDSNDIRALFELTLMDQSGKGKHKVHSHFDRALEGGPYTLKYKGSMWGYKRFFKRSALETSDYLKDDCLVINCTVGVVRARLEGPKQYGIVLPLSNMGQGLKDLLDSEVGCDIAFQVGDETYKAHKLILAARSPVFRAQFFGPIGNNNVDRIVIDDIEPSIFKAMLSFIYTDVLPNVHEITGSTSASSFTNMIQHLLAAADLYDLARLKILCEVLLCEKLDVDNVATTLALAEQHQFLQLKAFCLEFVASPANLGAVMKSEGFKHLKQSCPTLLSELLNTVAAADKSSTSGQSNKKRSASSVLGCDTTNVRQLRRRTRKEVRAVS”, the “soluble on expression in E. coli” value was “not soluble”.

As to “MSVDEKPIKIKVEKVSKIFGKQTKKAVQMLANGKAKKEILKATGSTVGVNQADFEVYDGEIFVIMGLSGSGKSTLVRMLNRLIEPTAGNIYIDGDMITNMSKDQLREVRRKKISMVFQKFALFPHRTILENTEYGLELQGVDKQERQQKALESLKLVGLEGFEHQYPDQLSGGMQQRVGLARALTNDPDILLMDEAFSALDPLIRKDMQDELLDLHDNVGKTIIFITHDLDEALRIGDRIVLMKDGNIVQIGTPEEILMNPSNEYVEKFVEDVDLSKVLTAGHIMKRAETVRIDKGPRVALTLMKNLGISSIYAVDKQKKLLGVIYASDAKKAAESDLSLQDILNTEFTTVPENTYLTEIFDVVSDANIPIAVVDEKQRMKGIVVRGALIGALAGNNEYINAEGT”, the “soluble on expression in E. coli” value was “not soluble”.

In the case of “MSVEFYNQNAQQFFSSTVEVDSTSLLDQFVPYLPQGGLVLDAGCGSGRDSKRFLDMGYQIDAFDASAPLAALAEELLNQSVTVTTFENFTSSKRYDGIWACASLLHVTRESLPETFAHLAKMLKCGGAFYCSFKYGQDEVERDGRRFTNCNEVLLNQLLTSSPLAIDKLWVTQDLRAGREHEQWLNAILIKRLEHHHHHH”, the “soluble on expression in E. coli” value is “soluble”.

Regarding “MSVEKLIVDHMETWTSALQTRSTAGRGSSGKIDLYGIKKLRELILELAVRGKLVPQDPNDEPASDLLKRIAAEKAELVKQGKIKKQKPLPEISEEEKPFELPEGWEWVHLPDIYCSISESSRKIKSSEILPEGKYPVIEQSQEFISGYCNNECLLIKLNNPVIVFGDHTRNIKFIDFDFVVGADGVKILSPILICERFFFWQLRSFKLDVRGYARHFKVLNSCLFALPPIAEQERIVEKVSSLMSLCDQLEQQSLTSLDAHQQLVETLLGTLTDSQNTAELAENWARISEHFDTLFTTEASVDALKQTILQLAVMGKLVPQDPNDEPASELLKRIAQEKAQLVKEGKIQKPLPPISDEEKPFELPEGWEWCRIGNIVNIKSELVSPKDYLNLYQVAPDIIEKGTGRVISKRTVKESGVKGPNSRFYKGQIVYSKIRPSLSKVFLAEYNGLCSADMYPLDCYINPNYLLKYILSIPFLMQVKKAENRIKMPKLNSDSFYNIIVAIPPYNEQQAIFDKINSIEAVCNGLISYIGIYHKTQLHLADALTDAAIN”, the “soluble on expression in E. coli” value is given as “not soluble”.
